Measured values reported in US20150072922A1, “RNASE 7 ANTIMICROBIAL PEPTIDES” (THE RESEARCH INSTITUTE AT NATIONWIDE CHILDREN'S HOSPITAL, priority 2012, published 2015).
Entries after “also recorded” stand apart in the source; their conditions may differ.

B1: RNase7: recombinant full-length human Ribonuclease 7, amino acids 1-128 (SEQ ID NO: 1), N-terminal His tag (protein, listed as Homo sapiens)
chain: KPKGMTSSQWFKIQHMQPSPQACNSAMKNINKHTKRCKDLNTFLHEPFSSVAATCQTPKIACKNGDKNCHQSHGPVSLTMCKLTSGKYPNCRYKEKRQNKSYVVACKPPQKKDSQQFHLVPVHLDRVL
modifications: N-terminal His tag
B2: F:1-97: recombinant N-terminal RNase 7 fragment, amino acids 1 to 97 (SEQ ID NO: 5), N-terminal His tag (protein, listed as Homo sapiens)
chain: KPKGMTSSQWFKIQHMQPSPQACNSAMKNINKHTKRCKDLNTFLHEPFSSVAATCQTPKIACKNGDKNCHQSHGPVSLTMCKLTSGKYPNCRYKEKR
modifications: N-terminal His tag

Experiments:
[1] = tested on: E. Coli, P. aeruginosa and E. faecalis; assay: Atomic Force Microscopy of bacterial morphology; format: cell-based; settings: twice the MIC, 1×10^9 cfu, FIG. 13
Method: (See FIG. 13) 1×10^9 cfu of E. Coli, P. aeruginosa and E. faecalis were incubated with twice the MIC of RNase 7. Ultra-pure water was used as a negative control. AFM imaging was performed with the Multimode AFM instrument (Veeco, Santa Barbara, Calif.) at Ohio State.

human erythocytes = format: cell-based
Method: Hemolytic assay: To determine the hemolytic activity of RNase 7, washed human erythocytes are incubated for 1 hour at 37° C. with a serial two-fold dilution of recombinant RNase 7 and its fragments in pyrogen free saline. After incubation, centrifugation to remove intact erythrocytes and a 10-fold dilution of supernatant, the concentration of released hemoglobin is measured in a micotitre plate reader at 405 nm. (Biochem J. Feb. 15 2008; 410(1):113-122) The peptide concentration that results in 50% hemolysis of erythrocytes will be designated the HC50.

uropathogenic E. coli = assay: RNase7 antibacterial activity, MIC on strains isolated from positive urine cultures; format: cell-based, Escherichia coli; settings: uropathogenic E. coli isolated from urine cultures (N=3)
From the text: (§1) Laboratory bacterial strains from the American Type Culture Collection (ATCC, Manassas, Va.) and strains isolated from positive urine cultures were obtained from the Microbiology Laboratory at Nationwide Children's Hospital.

[2] = tested on: Human primary bladder urothelial cells and renal medullary epithelial cells; assay: Cytotoxic assay; format: cell-based
Method: Cytotoxic assay: The urothelial cells that line the bladder and distal nephron epithelial cells are the primary areas of RNase7 protein expression in the kidney and urinary tract. Thus, the cytotoxicity of variant peptides on these epithelia is determined. Human primary bladder urothelial cells (Catalog #4320, ScienCell Research Laboratories, Carlsbad, Calif.) and renal medullary epithelial cells (Catalog # FC-0018, Lifeline Cell Technology, Frederick, Md.) are cultured according to the manufacture's instructions. Cytotoxicity is measured with the Live/Dead Viability/Cytotoxicity Kit for mammalian cells (Catalog number # L3224, Invitrogen/Molecular Probes, Eugene Oreg.) according to the manufacturer's fluorescence microplate protocol and expressed as the percentage of viable cells after treatment with serial two-fold dilutions of RNase 7 and its deletion fragments incubated for 1 hour at 37° C. The results of the cytotoxic assay are reported as the EC50 or the concentration that results in 50% cell death.

[3] = tested on: ATCC non-uropathogenic strains; assay: RNase7 antibacterial activity, MIC on laboratory strains; format: cell-based; settings: ATCC non-uropathogenic strains (N=3 distinct strains)
From the text: as §1

Escherichia coli (UTI89) = assay: SYTOX Green bacterial cell death / membrane permeabilization assay; format: cell-based; settings: 3 hours, FIG. 1, compared to full-length
Method: (§2) Assays of the permeabilization of bacterial membrane were performed with SYTOX green nucleic acid stain (Invitrogen™). The overnight cultures of bacteria were centrifuged at 5000 rpm for 5 min, the pellets were then washed with water and resuspended in water with an OD=0.5. 90 μl of each bacteria were then incubated with 10 μl of peptides with different concentrations for 3 hours at 37° C. in a 96-well plate. 100 μl of 2 μM SYTOX Green (Invitrogen™) were then added to each well and incubated in dark for 15 min. SYTOX green penetrates cells with compromised membranes not the membranes of live cells. The increase of fluorescence was measured using […] filters for excitation and emission wavelengths, respectively. Bacteria alone and bacteria treated with 70% ethanol were used as controls and the fluorescence from each was recorded as Fmin and Fmax. The percentage of cell death at each concentration for each fragment was calculated as below: death %=(F−Fmin)/(Finax−Fmin)*100%
(§3) To confirm the accuracy of our MIC/MBC data, cell death assays using SYTOX Green (Invitrogen), which selectivity labels nucleic acids of cells with compromised membranes of dead/dying cells were performed. Overnight cultures of bacteria were centrifuged at 5000 rpm for 5 minutes. Pellets were then washed with PBS (pH 7.4) and resuspended in PBS to an OD600 of 0.5 for Escherichia coli (UTI89) and OD600 of 0.8 for Staphylococcus saprophyticus. Per manufacturerer's instructions, 90 μl of each bacteria strain were incubated with 100 μl of 2 uM SYTOX Green for 15 minutes. Ten microliters of peptides at various concentrations were added for 3 hours at 37° C. in a 96-well plate. Compromised bacterial membranes of dead/dying cells will be labeled while lives cells are not labeled as noted by Invitrogen. Fluorescence was measured using 485 and 520-nm filters for excitation and emission wavelengths, respectively. Untreated bacteria were used as a 100% live control, and fluorescence was noted as Fmin. To elicit complete killing, bacteria were treated with 70% ethanol for 1 hour. This experimental group's fluorescence was noted as Fmax. The percentage of cell death at each concentration for each fragment was calculated as (Ffragment−Fmin)/(Fmax−Fmin)×100%.

[4] = tested on: Staphylococcus saprophyticus; assay: as above; format: cell-based; settings: 3 hours, FIG. 2, compared to full-length
Method: as §2, §3

| Molecule | morphological effect on bacteria (AFM) [1] | hemolytic properties (human erythocytes) | mean inhibitory concentration (MIC) (uropathogenic E. coli) | cytotoxic properties [2] | mean inhibitory concentration (MIC) [3] | membrane permeabilization and death, E. coli (in words) (Escherichia coli (UTI89)) | membrane permeabilization and death, S. saprophyticus (in words) [4] |
| --- | --- | --- | --- | --- | --- | --- | --- |
| B1 | direct bacteriocidal effects on multiple microbes | no cytoxic or hemolytic properties | 2.5 µM | no cytoxic or hemolytic properties | 1.3 µM |  |  |
| B2 |  |  |  |  |  | increased permeability; also recorded: improved activity compared to the full-length protein; also recorded: increased membrane permeabilization and subsequent death against both strains | increased permeability; also recorded: improved activity compared to full-length; also recorded: increased membrane permeabilization and subsequent death against both strains |
